For this test, the target named is 123 different clinical envelope proteins. Nature of the test: cell-based or functional assay.

B1: CD4 A Adnectin (anti-CD4 Domain 2 Adnectin) (designed binder)
chain: GVSDVPRDLEVVAATPTSLLISWDAPAVTVHSYHIQYWPLGSYQRYQVFSVPGSKSTATISGLKPGVEYQIRVYAETGGADSDQSFGWIQIGYRTP
With B1, the Geometric mean EC50 (nM), cell-cell fusion assay was determined as 5.5 nM; the Geometric mean EC50 (µg/mL), cell-cell fusion assay amounted to 0.006 µg/mL; the Median EC50 (nM), cell-cell fusion assay turned out to be 5.3 nM.

B2: CD4 B Adnectin (anti-CD4 Domain 4 Adnectin) (designed binder)
chain: MASTSGSASYLIPSDLEVVAATPTSLSIYWYPVASTIINFRITYVETGGNSPVQEFTVPGSKSTATISGLKPGVDYTITVYAVHYEQKYSEYWIGHPISINYRTEGSGSHHHHHH
Molecule B2 returned a Geometric mean EC50 (nM), cell-cell fusion assay of 163 nM; a Geometric mean EC50 (µg/mL), cell-cell fusion assay of 1.8 µg/mL; a Median EC50 (nM), cell-cell fusion assay of 1300 nM.

These data come from US20240239877A1.
